Laboratory results reported in patent US20220412975.

Legend:
[1] = system: COMP1 candidate peptide, (Donor) GMQQSVRTGLPS (K-Quencher)
[2] = system: TSP1-2 substrate, (HiLyteFluor-488)-SSMVLELRGLRTIVT-K(QXL520)-NH2
[3] = system: TSP1-1 substrate, (HiLyteFluor-488)-DELSSMVLELRGLRT-K(QXL520)-NH2
[4] = system: COMP2 candidate peptide, (Donor) SPGFRC(Acm)EAC(Acm)PPGYS (K-Quencher)
[5] = system: TSP1-5 substrate, (HiLyteFluor-488)-SSMVLELRGLRT-K(QXL520)-NH2
[6] = system: TSP1-4 substrate, (HiLyteFluor-488)-EENKELANELRRPPL-K(QXL520)-NH2
[7] = system: TSP1-3 substrate, (HiLyteFluor-488)-KVTEENKELANELRR-K(QXL520)-NH2
[8] = system: (HiLyteFluor-488)-DELSSMVLELRGLRT-K(QXL520)-E-NH2

rPro-hCD-FM2 (Rat 1-217/Human 237-537 FM2 (Q216K))-TEV-2Strep-6His, sequence (chain, as listed by the source Q216K): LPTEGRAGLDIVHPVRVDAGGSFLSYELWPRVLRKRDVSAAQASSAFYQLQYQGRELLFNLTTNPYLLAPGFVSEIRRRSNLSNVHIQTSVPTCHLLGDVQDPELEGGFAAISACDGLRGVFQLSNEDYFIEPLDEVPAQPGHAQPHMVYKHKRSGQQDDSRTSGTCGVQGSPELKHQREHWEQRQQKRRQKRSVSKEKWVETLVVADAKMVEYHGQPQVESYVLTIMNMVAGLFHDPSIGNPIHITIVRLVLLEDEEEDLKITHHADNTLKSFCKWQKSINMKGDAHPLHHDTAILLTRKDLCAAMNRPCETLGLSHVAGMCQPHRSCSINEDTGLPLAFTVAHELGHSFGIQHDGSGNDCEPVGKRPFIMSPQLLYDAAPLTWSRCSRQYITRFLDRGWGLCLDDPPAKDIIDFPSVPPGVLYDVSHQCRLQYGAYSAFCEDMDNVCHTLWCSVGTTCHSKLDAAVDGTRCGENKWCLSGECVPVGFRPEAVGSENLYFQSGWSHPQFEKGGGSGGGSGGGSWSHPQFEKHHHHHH
rPro-hCD (Rat 1-217/Human 237-537)-TEV-2Strep-6His, sequence (chain, as listed by the source): as the sequence (chain, as listed by the source Q216K) above, with K192Q counted along it

rPro-hCD (Rat 1-217/Human 237-537)-TEV-2Strep-6His
FRET peptide cleavage (Relative Fluorescence Units over time) [1]: No activity was observed with COMP candidate peptides COMP1 | kcat [1]: 1.22e-05 s⁻¹ | FRET peptide cleavage (Relative Fluorescence Units over time) [2]: also cleaved the overlapping TSP1 S2 substrate | kcat [2]: 5.33e-05 s⁻¹ | FRET peptide cleavage (Relative Fluorescence Units over time) [3]: demonstrated the greatest specificity for the TSP1 S1 | kcat [3]: 0.00035 s⁻¹ | FRET peptide cleavage (Relative Fluorescence Units over time) [4]: No activity was observed with COMP candidate peptides COMP1 ... or COMP2 | kcat [4]: 6.33e-06 s⁻¹ | FRET peptide cleavage (Relative Fluorescence Units over time) [5]: Activity was observed for the S5 substrate with ADAMTS-7 human catalytic domain constructs compared to buffer alone, however the removal of the amino DEL sequence greatly reduced the signal for activity compared to the 51 substrate | kcat [5]: 3.33e-05 s⁻¹ | FRET peptide cleavage (Relative Fluorescence Units over time) [6]: No significant activity was detected at the defined ADAMTS1 cleavage site E311⬇L312 from TSP1 S3 ... or TSP1 S4 | kcat [6]: 3.33e-05 s⁻¹ | FRET peptide cleavage (Relative Fluorescence Units over time) [7]: No significant activity was detected at the defined ADAMTS1 cleavage site E311⬇L312 from TSP1 S3 | kcat [7]: 2e-05 s⁻¹ | FRET peptide cleavage (increase of fluorescence intensity) [8]: It was surprisingly found that the same substrate could be used for the paralogs ADAMTS-7 and ADAMTS-12

rPro-hCD-FM2 (Rat 1-217/Human 237-537 FM2 (Q216K))-TEV-2Strep-6His
FRET peptide cleavage (Relative Fluorescence Units over time) [1]: No activity was observed with COMP candidate peptides COMP1 | kcat [1]: 1.27e-05 s⁻¹ | FRET peptide cleavage (Relative Fluorescence Units over time) [2]: also cleaved the overlapping TSP1 S2 substrate | kcat [2]: 4.83e-05 s⁻¹ | FRET peptide cleavage (Relative Fluorescence Units over time) [3]: demonstrated the greatest specificity for the TSP1 S1 | kcat [3]: 0.0004 s⁻¹ | FRET peptide cleavage (Relative Fluorescence Units over time) [4]: No activity was observed with COMP candidate peptides COMP1 ... or COMP2 | kcat [4]: 6.5e-06 s⁻¹ | FRET peptide cleavage (Relative Fluorescence Units over time) [5]: Activity was observed for the S5 substrate with ADAMTS-7 human catalytic domain constructs compared to buffer alone, however the removal of the amino DEL sequence greatly reduced the signal for activity compared to the 51 substrate | kcat [5]: 3.5e-05 s⁻¹ | FRET peptide cleavage (Relative Fluorescence Units over time) [6]: No significant activity was detected at the defined ADAMTS1 cleavage site E311⬇L312 from TSP1 S3 ... or TSP1 S4 | kcat [6]: 3.5e-05 s⁻¹ | FRET peptide cleavage (Relative Fluorescence Units over time) [7]: No significant activity was detected at the defined ADAMTS1 cleavage site E311⬇L312 from TSP1 S3 | kcat [7]: 2e-05 s⁻¹ | FRET peptide cleavage (increase of fluorescence intensity) [8]: It was surprisingly found that the same substrate could be used for the paralogs ADAMTS-7 and ADAMTS-12
